According to the supplement of paper PMC10724198:
± gives the standard deviation of the averaged measurements.

Tests used:
Saccharomyces cerevisiae [1] = test: protein stability index of tFT-peptide fusion in deletion strain of DOA10 (PSI (0-1 scale)); higher = more stable (slower turnover)
Protocol: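 MPS profiling in S. cerevisiae of two library types built from selected 12-aa C-degron peptides (IN1, IN2, LN1, LN3, VN2, R1-R5, W1-W3, Atg1 and Rpa12 C-termini): saturation mutagenesis libraries and C-terminal +1 capping libraries (13 aa). Each peptide is fused to the C-terminus of a sfGFP-mCherry timer, after a GGGS linker. Cells are FACS-sorted into 8 mCherry/sfGFP bins and sequenced. PSI runs from 0 (unstable) to 1 (stable), measured once in wild type and in the das1Δ or doa10Δ background.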

Saccharomyces cerevisiae [2] = test: protein stability index of tFT-peptide fusion (C-terminal peptide) (PSI (0-1 scale)); higher = more stable (slower turnover)
Protocol: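 MPS profiling in S. cerevisiae of the tFT-X12 degron library: putative degron peptides plus stable controls, 12 aa, fused to the C-terminus of a sfGFP-mCherry timer. Cells are FACS-sorted into 8 mCherry/sfGFP bins and deep-sequenced. PSI runs from 0 (unstable) to 1 (stable). Backgrounds are wild type, das1Δ and doa10Δ at 30 °C, and wild type, das1Δ, cdc34-1 and cdc53-1 at 37 °C; 2-3 technical replicates each.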

Saccharomyces cerevisiae [3] = test: as above; details: genetic background: wild type; temperature: 30 C
Saccharomyces cerevisiae [4] = test: protein stability index of tFT-peptide fusion in wild type (PSI (0-1 scale)); higher = more stable (slower turnover); details: genetic background: wild type
[5] = genetic background: cdc34-1, temperature: 37 C
[6] = genetic background: cdc53-1, temperature: 37 C
[7] = genetic background: das1 deletion, temperature: 30 C
[8] = genetic background: das1 deletion, temperature: 37 C
[9] = genetic background: doa10 deletion, temperature: 30 C
[10] = genetic background: wild type, temperature: 30 C
[11] = genetic background: wild type, temperature: 37 C
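Throughout, for protein stability index of tFT-peptide fusion (C-terminal peptide): PSI is a weighted mean of sequencing reads over stability bins, variants kept only with over 10 reads, mCherry proximal and sfGFP distal, peptide attached via GGGS linker.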
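Throughout, for protein stability index of tFT-peptide fusion in deletion strain of DOA10: PSI per variant is the weighted mean of its sequencing read distribution over the sorted stability bins, counting only variants with over 10 reads summed across bins.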
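Throughout, for protein stability index of tFT-peptide fusion in wild type: PSI derived as read-weighted mean over the 8 sorting bins, only variants exceeding 10 total reads kept, mCherry placed adjacent to the peptide and sfGFP distal.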

| Sequence | protein stability index (Saccharomyces cerevisiae [1]) | protein stability index (Saccharomyces cerevisiae [4]) | other results |
| --- | --- | --- | --- |
| AITLPMCPLLLR | 0.649 | 0.207 | protein stability index (Saccharomyces cerevisiae [2]; [5]): 0.0636 ± 0.0091; protein stability index (Saccharomyces cerevisiae [2]; [6]): 0.047 ± 0.0088; protein stability index (Saccharomyces cerevisiae [2]; [7]): 0.165 ± 0.017; protein stability index (Saccharomyces cerevisiae [2]; [8]): 0.204 ± 0.014; protein stability index (Saccharomyces cerevisiae [2]; [9]): 0.6226 ± 0.0028; protein stability index (Saccharomyces cerevisiae [2]; [10]): 0.16 ± 0.027; protein stability index (Saccharomyces cerevisiae [2]; [11]): 0.157 ± 0.0086; protein stability index (Saccharomyces cerevisiae [3]): 0.256 ± 0.018 |
| CLVSLPILLFFR | 0.586 | 0.0566 | protein stability index (Saccharomyces cerevisiae [2]; [5]): 0.0435 ± 0.013; protein stability index (Saccharomyces cerevisiae [2]; [6]): 0.0381 ± 0.0045; protein stability index (Saccharomyces cerevisiae [2]; [7]): 0.0501 ± 0.019; protein stability index (Saccharomyces cerevisiae [2]; [8]): 0.0652 ± 0.014; protein stability index (Saccharomyces cerevisiae [2]; [9]): 0.545 ± 0.023; protein stability index (Saccharomyces cerevisiae [2]; [10]): 0.0298 ± 0.0067; protein stability index (Saccharomyces cerevisiae [2]; [11]): 0.0556 ± 0.015; protein stability index (Saccharomyces cerevisiae [3]): 0.0658 ± 0.021 |
| RSLRLLLPLYFR | 0.656 | 0.289 |  |
| RSLRNLLPLYFR | 0.687 | 0.465 |  |
| RSLRSLLPLYFR | 0.702 | 0.469 |  |
| RSLRVLAPLYFR | 0.687 | 0.352 |  |
| RSLRVLLCLYFR | 0.471 | 0.306 |  |
| RSLRVLLILYFR | 0.38 | 0.23 |  |
| RSLRVLLMLYFR | 0.468 | 0.218 |  |
| RSLRVLLPLHFR | 0.714 | 0.517 |  |
| RSLRVLLPLSFR | 0.673 | 0.401 |  |
| RSLRVLLPLYFE | 0.64 | 0.524 |  |
| RSLRVLLPLYFF | 0.502 | 0.364 |  |
| RSLRVLLPLYFN | 0.165 | 0.107 |  |
| RSLRVLLPLYFRG | 0.694 | 0.324 |  |
| RSLRVLLPLYTR | 0.648 | 0.547 |  |
| RSLRVLVPLYFR | 0.657 | 0.218 |  |
| RSLRVMLPLYFR | 0.625 | 0.217 |  |
| RSLWVLLPLYFR | 0.605 | 0.284 |  |
| RSMRVLLPLYFR | 0.653 | 0.257 |  |

| Sequence | protein stability index (Saccharomyces cerevisiae [1]) | protein stability index (Saccharomyces cerevisiae [4]) | other results |
| --- | --- | --- | --- |
| RSTRLDAIYFRI | 0.678 | 0.53 |  |
| RSWRVLLPLYFR | 0.692 | 0.297 |  |
| RVMRLDAIYFRI | 0.656 | 0.302 |  |
| RVTILDAIYFRI | 0.663 | 0.545 |  |
| RVTKLDAIYFRI | 0.667 | 0.483 |  |
| RVTRLDAIGFRI | 0.696 | 0.69 |  |
| RVTRLDAIRFRI | 0.652 | 0.616 |  |
| RVTRLDAIYFDI | 0.734 | 0.7 |  |
| RVTRLDAIYFRIH | 0.143 | 0.087 |  |
| RVTRLDAIYFRIY | 0.242 | 0.123 |  |
| RVTRLDAIYMRI | 0.71 | 0.382 |  |
| RVTRLDAIYWRI | 0.684 | 0.385 |  |
| RVTRLDEIYFRI | 0.731 | 0.685 |  |
| RVTRLDYIYFRI | 0.538 | 0.179 |  |
| RVTRLLAIYFRI | 0.287 | 0.155 |  |
| RVTRLRAIYFRI | 0.314 | 0.159 |  |
| RVTRQDAIYFRI | 0.698 | 0.553 |  |
| RVTTLDAIYFRI | 0.661 | 0.524 |  |
| RVTWLDAIYFRI | 0.656 | 0.323 |  |
| RVWRLDAIYFRI | 0.543 | 0.246 |  |
